Data taken from PMC4045321 (2014).

Molecular target: the molecule itself
Assay: size exclusion chromatography

B1: eIF2Bα (protein)
chain: MDDKELIEYFKSQMKEDPDMASAVAAIRTLLEFLKRDKGETIQGLRANLTSAIETLCGVDSSVAVSSGGELFLRFISLASLEYSDYSKCKKIMIERGELFLRRISLSRNKIADLCHTFIKDGATILTHAYSRVVLRVLEAAVAAKKRFSVYVTESQPDLSGKKMAKALCHLNVPVTVVLDAAVGYIMEKADLVIVGAEGVVENGGIINKIGTNQMAVCAKAQNKPFYVVAESFKFVRLFPLNQQDVPDKFKYKADTLKVAQTGQDLKEEHPWVDYTAPSLITLLFTDLGVLTPSAVSDELIKLYL
B1 gave a Kd of less than 1 nM.
